B1: Chitinase 5: chitinolytic enzyme from P. orarium, SEQ ID NO: 5, recombinant with PelB signal peptide and 6×His tag (protein, listed as Photobacterium orarium)
chain: MAMGWSQININGVQKWEEAYSLNVDAANEIITIGAADTAGALYASQSLLQLVDGNKVPEVQITDAPRFAYRGFSVDAVRNFRTKDAIIQLLDQMAAFKLNKLHLRLADDEGWRIEIAGLPELTDVGATRCHDPEEKACILPFLGAGPDGSPESNGYYTATDYQDILSHAAALNIEVVPEIDIPGHAHAAIKAMEARYDHYAAQGNMAEANKYLLTDFNDTTQYLSVQMFTDNAINVCMESSYNFVDAVVSGLVSLHQGVQPLKTFHFGGDEIAGAWINSPACQDFIANNTDGVHSVSDLSRYFVERISVITANYGLDMAGWEDGLMHDGQVYPRSQMANNQLWGNAWQNIWEWGVADRAYNLANNDYKVVYNHATHLYFDHPYEPDPNERGYYWAPRFTDTRKTFGFMPDDVFANADFTRAGAPITKAEVVASAGVKKLLKPENVLGLQGSLWAEAVRTEDQFEGMIFPRVLGLAERAWHTATWEANDNAGIALDETGRNADYNHFANLLGQKVLPKLEQAGIAFNLPVPGGVIENGVLQANSTFPGLTIEYSTDQGTSWQSYDHLNPPAVAAGVQLRTVSGQRTSRVTTVNIE
modifications: PelB signal peptide; 6xHis tag; Chitinase 5
B2: Chitinase 1: chitinolytic enzyme from P. orarium, SEQ ID NO: 1, recombinant with PelB signal peptide and 6×His tag; run 19 = 2 μM alone (protein, listed as Photobacterium orarium)
chain: MAAPGTPQIAWMETDYAIVEVDQAASAYKSLITVKPAAEVPVAWQRYSGETADLWKVKLNGNVVFEQSIAPASSGAGSTTLSVAQGGQYAMTVELCSGTGAAQACTSSAATNIVVADTDGSHLDPLPMNVDANNGNYTTPANTVVGAYFVEWGVYGRKFSVDNIPAQNLTHILYGFIPICGPNESLGEIENGNSLAALNRACQGTPDYEVVIHDPWAAVQMPQPQSGHTHSTPYKGTYGQMMALKQRYPDLKIVPSVGGWTLSDPFYSFTDKAKRDIFVASVKKFLKTWKFFDGVDIDWEFPGGKGANANLGDPVNDGPAYVALMRELRVMLDELEAETGRQYELTSAIGVGYDKIDVVNYADAVQYMDYIFAMTYDFFGGWNNVPGHQTALFCGSHMSADVCNGTGVDENGVPRQGPAYTAAHGIDRLLAQGVPANKLVLGTAMYARGWTGVTEASMTDPTNPMTGTGNGMVPGSWEPGVIDYKDVVTDYINNAAVTKGYDAQAEAPWAYNPSNGNLITYDDRRSVLAKGQYVRNLGLAGLFAWEIDADNGDILNAMQDSLAGGGGNYAPVAKAGADQVVNGAASVTLDGSASSDRDGQIVSYQWTQTSGPALTLTGSDTATATVAVPEVTADTQYAFTLTVTDNAGDTATDSVTVTAKAPGSNTAPVVAVSGPATASAGDTVVLDASQSSDADGDTLTFTWTVPAGVNATVNGATVSFVADSYTVDTPLNFTVAVSDGTDSVTESVTVTVLKDGGSTGCTNAWATGGVYNSGDIVTHSGKSWKAKWWTTGEEPGTTGEWGVWEDLGAANCQIE
modifications: PelB signal peptide; 6xHis tag; Chitinase 1
notes: run 19 = 2 μM alone

Tests used:
[1] = Reducing end assay, specific chitinase activity of expression and purification fractions; type: biochemical; details: chitin powder, 16 h at 30° C.
Description: Integrity and correctness of the constructs was confirmed by colony PCR and Sanger-sequencing. All constructs were transformed into E. coli BL21 and expressed recombinantly. Expression levels of the target enzymes were determined densitometrically after immunoblot detection for cytosolic and secreted expression. Enzymatic activity was determined for all samples using a reducing end assay. […] Furthermore, it was confirmed that these enzymes are efficiently released into the culture supernatant, rendering cell lysis unnecessary for future production cycles.
A two-step purification of the selected recombinant enzymes with PelB signal peptide form the culture supernatant was carried out with an initial ammonium sulfate precipitation step and a sequential IMAC purification of the solubilized protein precipitate. Elution fractions were pooled and an SDS-PAGE and immunoblot was prepared loading the same volume for each sample (FIG. 4). Expression levels of the five chitinases varied largely, and C1 was detected in much greater abundance relative to the others. […] The observed molecular weight of all enzymes in SDS-PAGE gel and immunoblot was not in accordance with the expected theoretical molecular weight taking into account that a 6×His tag was added C-terminally to the enzymes and in general, bands for all enzymes were detected at a higher molecular weight. For all samples, unspecific bands could detected at ˜25 kDa and ˜50 kDa after IMAC purification, most likely representing host cell protein-contaminations. The amount of protein in the culture media, ammonium sulfate concentrates and the final dialyzed elution fractions was determined using the BCA assay and the same fractions were incubated with chitin powder for 16 h at 30° C. followed by the quantification of reducing sugars to measure specific chitinase activity (Table 4.2). Thereby it was confirmed that all target enzymes were successfully enriched during purification according to the specific activity.
For the determination of enzymatic activity of recombinant chitinases, a reducing end assay was carried out [Svein et al., Carbohydr Polym, 2004. 56(1): p. 35-39.]. Fractions containing chitinases were incubated with 5% (w/v) chitin powder extracted from shrimp shells (˜400.000 g/mol; Carl Roth) in MAT buffer for 2 h in an overhead shaker at ambient temperature (standard conditions). Samples were centrifuged at 13000×g for 2 min and 40 μl of the supernatant was mixed with 40 μl 0.5 M NaOH and 40 μL of a reagent containing 1.5 mg/ml 3-Methyl-2-benzothiazolinonhydrazon and 0.75 mg/ml Dithiothreitol. Samples were incubated at 80° C. for 15 min and then thoroughly mixed with 80 μl of 0.5% (w/v) FeNH4(SO4)2)×12H2O, 0.5% (w/v) sulfamic acid and 0.25 M HCl. After cooling down to room temperature, 100 μl of the samples were measured at 620 nm. A calibration curve of N-acetyl-glucosamine was constructed freshly for each measuring cycle. One unit [U] was defined as the amount of enzyme required to release 1 μmol of reducing sugars per hour.

[2] = Enzyme kinetics on chitin powder (Michaelis-Menten non-linear fit); type: biochemical; details: 2 μM enzyme, 0-150 mg/ml chitin powder
Description: Enzyme kinetics were determined using chitin powder as a substrate and the optimum enzyme to substrate ratio could be determined as well as Vmax and Km values. The concentrations of chitin powder varied
from 0 mg/ml up to 150 mg/ml while amount of enzyme was kept constant (2 μM). The initial velocities (V0) versus substrate concentration ([S]) were plotted as Lineweaver-Burk and Michaelis-Menten curves using GraphPad software (FIG. 7).
Maximum reaction velocities (Vmax) and Michaelis-Menten constants (Km) were determined using a non-linear fit Michaelis-Menten model (Table 4.6). Thereby, optimum enzyme-substrate ratios were determined that would allow a maximization of substrate conversion rates. Furthermore, the Km indicated the reciprocal enzyme-substrate affinity for C1-C5. Higher Km values reflect an overall lower affinity and thus reduced conversion efficiencies. […] In comparison, higher Km values for C2 and C5 reflected an overall lower affinity to insoluble chitin.
Enzyme samples were incubated at different temperature (10-60° C., 10° C. increment) and pH (4-11, increment 1) using different buffer systems (Acetate, Tris-HCl, MES, total molar concentration 100 mM), as well as NaCl content (0, 1. 2.5, 5, 10 and 20% w/v) to determine optimum reaction conditions. All experiments were carried out at 1.0 ml scale using 2 μM of the respective enzymes and a 5% (wv) suspension of chitin powder extracted from shrimp shells (˜400.000 g/mol; Carl, Roth) in 100 mM MAT buffer. For the determination of the substrate specificity, chitin powder (5% w/v), glycol chitin (10% v/v), colloidal chitin (5% w/v), chitosan [DA 15-25%, medium molecular weight, Sigma-Aldrich] (5% w/v) and microcrystalline cellulose powder (Sigma Aldrich) (5% w/v) were investigated, respectively. The effect of several potential co-factors on activity was elucidated at a concentration of 1 mM. Additionally, the effect of detergents [SDS 0.5% (w/v), Tween-20 and Triton X-100 both at 0.5% (v/v)] and chemicals (Imidazole 100 mM, EDTA 1 mM) on enzymatic activity was assessed. Samples were incubated in a thermomixer for 16 h at 900 rpm. After incubation, samples were analyzed using the enzyme assay. Thermostability was assessed after incubation of recombinant chitinases at 60° C. for different durations followed by the quantification of residual enzyme activity under standard assay conditions.

Gibberella zeae = type: cell-based; parameters: key: xx = no growth/strong inhibition; x = small inhibition; details: start concentration 100 μg/ml
Fusarium oxysporum = experiment: Minimum inhibitory concentration (MIC) test on fungal pathogens; type: cell-based; parameters: key: xx = no growth/strong inhibition; x = small inhibition; details: start concentration 100 μg/ml
Fusarium culmorum = experiment: as above; type: cell-based
Description: The start concentration of each chitinase used in minimum inhibitory concentration (MIC) tests was 100 μg/ml.
The chitinases were further tested for their protective activity in germination tests. Briefly, the following steps were conducted: • 1. Disinfection of wheat seeds in 10% bleach for 10 minutes in a biosafety cabinet • 2. Germination on filter paper • 3. Foliar application 3 dps (days post seeding) and 1 dbi (day before infection) • 4. 4 dps: add pathogen Fusarium culmorum • 5. Monitoring germination and plant health/phytotox

[3] = Dialysed elution fraction after IMAC

Row | Molecule | Specific activity ([1]; Culture supernatant fraction) | Specific activity [1, 3] | Km (enzyme-substrate affinity) [2] | Vmax (maximum reaction velocity) [2] | growth inhibition of Gibberella zeae in the MIC test (Gibberella zeae) | growth inhibition of Fusarium oxysporum in the MIC test (Fusarium oxysporum) | inhibition of Fusarium culmorum in the MIC assay (Fusarium culmorum)
1 | B1 | 0.03 U/mg | 6.67 U/mg | 36.0 mg/mL | 89.5 U/ml | xx | xx | –
2 | B2 | 0.10 U/mg | 3.52 U/mg | 9.1 mg/mL | 197.7 U/ml | x | xx | showed inhibition

Source: patent US20240287489A1, “CHITINOLYTIC ENZYME-BASED PLANT PROTECTION AGENTS” (GLOBACHEM NV, priority 2021, published 2024)
